Reference: PMC11559061

T1: Fur (ferric uptake regulator) (Staphylococcus aureus) (UniProt A0A0H2XGT2)
T1 sequence: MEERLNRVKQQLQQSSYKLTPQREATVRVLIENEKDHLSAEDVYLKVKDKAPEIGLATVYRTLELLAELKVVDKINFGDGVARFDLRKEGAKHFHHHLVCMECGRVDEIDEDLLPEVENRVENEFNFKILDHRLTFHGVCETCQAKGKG

T2: purified S. aureus Fur (S. aureus) (UniProt P0A032)
T2 sequence: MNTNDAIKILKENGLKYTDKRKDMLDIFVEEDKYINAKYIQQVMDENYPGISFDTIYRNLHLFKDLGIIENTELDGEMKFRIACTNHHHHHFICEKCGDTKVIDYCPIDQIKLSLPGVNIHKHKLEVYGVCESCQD


What was measured:
[1] = molecular target: T1, Fur (ferric uptake regulator) (Staphylococcus aureus); test: EMSA
[2] = molecular target: T2, purified S. aureus Fur (S. aureus)

Molecule | binding [1] | EMSA: association of Fur (40 µM) with isdC operator DNA, Fpa titrated in (0-40 µM by the legend, 0-80 µM by the methods), with 100 µM MnCl2 [2]
CTTTAGTAAAATCATAAATAATAATGATTATCATTGTCAATATTTATTTTATAATCAATTTATTATTGTTATACGAAAATAGATGTGCTAGTATAATTGATAACCATTATCAATTGCAATGGTTAATC (double strand) [isdC operator (two Fur boxes), 128 bp PCR product] | binds | –
purified S. aureus Fpa (natural protein) MAKQATMKNAALKQLTKDADEILHLIKVQLDNLTLPSCPLYEEVLDTQMFGLQKEVDFAVKLGLVDREDGKQIMLRLEKELSKLHEAFTLV | – | 20 µM
